Data set [1] has as its system Bax, Bcl2, cytochrome c, caspase 3 in HCT8 cells. The data set can be described thus: Western blotting of apoptosis proteins. The class given is cell-based, human. An excerpt:
The regulation of apoptosis involves activation of caspases, increase in Bax/Bcl2 ratio and release of cytochrome c from mitochondria to cytoplasm (Elmore, S. (2007) Toxicol Pathol. 2007; 35(4): 495-516). The effect of MakA on expression of these proteins was investigated using western blotting.
The effect of MakA on expression of cytochrome c and caspase 3 activation was investigated.
On the technique in general: A western blot detects proteins with antibodies after separation by electrophoresis.

Data set [2] has as its system CT26 cell line. The data set can be described thus: CT26 xenograft mice model of colon cancer. The class given is in vivo. The settings on record: repeated intratumor injection, 25 μg, from day 9, sacrificed day 21, versus vehicle. As to the method:
A) Colon cancer was established using the rapidly proliferating CT26 cell line. From day 9, mice were treated by repeated intratumor injection of MakA (25 μg) or Vehicle (Tris 20 mM) at indicated intervals and sacrificed on day 21.
The therapeutic effect of MakA against colon cancer was investigated in a well-established colon cancer model. Colon cancer was established using the rapidly proliferating CT26 cell line. From day 9, mice were treated by repeated intratumor injection of MakA (25 μg) or Vehicle (Tris 20 mM) at indicated intervals and sacrificed on day 21 (FIG. 7A).

Data set [3] relates to human RBCs. Put plainly: Hemolysis of human RBCs. The format is cell-based. An excerpt:
However, overexpression of at least three components (makCBA) or whole operon (makDCBA) was required for lethality against C. elegans. (Dongre et al. (2018) Commun Biol. 2018 Jun. 7; 1:59) B) MakA causes cell death in tumor cell lines (HCT8 and DLD1=colon cancer cell, PC3=Prostate cancer cells, HTB9=Bladder cancer cell, PC3=Prostate cancer cell, Suit2=Pancreatic cancer cell, MCF7=Breast cancer cells) of diverse origin. The healthy non-cancerous cells from colon (CCD-18Co and CCD 841 CoN), prostate (PNT1A) and oral fibroblasts (PDL1) were intermediately sensitive compared to tumor cells. […] TritonX-100 (0.1%) induced RBCs hemolysis was used as a positive control. D) MakA induced dramatic changes in tumor cell morphology, unlike non-cancerous PDL1 fibroblasts that were largely unaffected. Scale bar=20 μm.

The subject of data set [4] is human colon carcinoma cells, HCT8; oral fibroblasts, PDL1. Put plainly: Live cell microscopy of cell morphology. The class given is cell-based. The settings on record: HCT8 versus PDL1. As to the method: Cells were grown in 96 well plate (1×10^4/well, Tecan Group Ltd) overnight and treated with MakA at different concentration for 48 hours at +37° C., 5% CO2. Fluorescence and bright field images were captured with fluorescence microscope (Nikon, Eclipse Ti). Images were processed using the NIS-Elements (Nikon) and ImageJ software. For live cell confocal microscopy, cells were grown on a coverslip and treated with Alexa-568 labelled MakA for 6 or 24 hours at +37° C., 5% CO2.
However, overexpression of at least three components (makCBA) or whole operon (makDCBA) was required for induction of lethality to C. elegans (FIG. 1A). The effect of purified MakA protein was investigated on in vitro cultured human tumor cell lines of diverse origin (HCT8 and DLD1=colon cancer cell, PC3=Prostate cancer cells, HTB9=Bladder cancer cell, PC3=Prostate cancer cell, Suit2=Pancreatic cancer cell, MCF7=Breast cancer cells).

B1: MakA (protein, listed as Vibrio cholerae)
chain: MSQQVTQLNPTQQTTQSAFLATTVITAQCHAILNTQFTPPTVKPDWFDDLSKKLDSAKLVAKQWIDDLGPQVSASIPSSVINFDATFQASIDAIHELYKADPTASGKDNTTVQQASQIMTALSSQVSGIEATVKGMNKELSDWGVKMQAAHDDLVNGATNIQKTIIDLQTDIESMNNAIDNNRAAIEKLNKDLVYAQVAVGVGIFMLVAGVALTVATAGTAAAVSGGIAAVGAASIIAGGVTWGVLQNQIDDDYDSIAQEQKQKAEDQQQIIALQGLSNASSAVVSAIETSTSVLSDFETTWTVFGNELDDVVTKLNNGASMQSIIMEKVMSDAAKNEWDDAVELAKQLASAKIAIETKELAPAVKQAA
Turning to B1, in data set [1], the “caspase 3 activation” value was “activation of caspase 3”; the “expression of Bax” value is on record as “induction in expression of pro-apoptotic protein, Bax”; the “expression of Bcl2” value is listed as “decrease in expression of anti-apoptotic protein, Bcl2”; the “expression of cytochrome c” value is “increase in cytochrome c expression”. Also, in data set [2], the tumor volume result is “caused significant reduction in tumor volume”. Moreover, the “lysis of human RBCs” value in data set [3] is “failed to induce lysis of human RBCs”. The plasma membrane remodeling result in data set [4] is “induced plasma membrane remodeling in human colon carcinoma cells, HCT8 but not in oral fibroblasts, PDL1”.

The values are drawn from patent US12533393B2, “Vibrio cholerae protein for use against cancer” (priority 2019, dated 2026).
